± gives the uncertainty stated by the source.
B1: DnaJ homolog subfamily C member 2, residues 451 to 503; numbered along this chain, Q99543 (parent)
chain: SKNWSEDDLQLLIKAVNLFPAGTNSRWEVIANYMNIHSSSGVKRTAKDVIGKA

Variants of: B1
Experiment: abundance fitness (aPCA) (normalised: wild type 0, dead -1); higher = more abundant; growth selection in yeast, the domain comes from the species named
Settings: Homo sapiens

Abundance fitness, by site and new letter:
K47: V -0.095 ± 0.072, Q 0.057 ± 0.089, N -0.065 ± 0.089, C -0.206 ± 0.091, I -0.017 ± 0.12, M -0.111 ± 0.1, P -0.133 ± 0.11, W -0.266 ± 0.089, T 0.08 ± 0.091, S 0.033 ± 0.075
T45: I -0.33 ± 0.15
S40: E -0.336 ± 0.087, Y -0.504 ± 0.1, R -0.286 ± 0.055, W -0.646 ± 0.08, K -0.302 ± 0.074, L -0.306 ± 0.066
K52: N -0.358 ± 0.12, S -0.252 ± 0.073, I -0.094 ± 0.11, P -0.077 ± 0.094, F -0.329 ± 0.11, W -0.018 ± 0.12, R -0.119 ± 0.076, E -0.006 ± 0.12
K14: F -0.006 ± 0.084, N -0.274 ± 0.095, P -0.971 ± 0.099
S1: W -0.721 ± 0.12, P -0.547 ± 0.25, M -0.364 ± 0.26, G 0.092 ± 0.092, V -0.063 ± 0.11
P20: I -0.961 ± 0.13, H -0.228 ± 0.089, D -0.13 ± 0.098, F -0.984 ± 0.11, R -0.392 ± 0.053, W -0.975 ± 0.082
D8: Y -0.712 ± 0.091, P -1.06 ± 0.095, C -0.732 ± 0.086, S -0.615 ± 0.06
N35: T -0.345 ± 0.071, H -0.519 ± 0.12, C -0.587 ± 0.081, D -0.685 ± 0.096, S -0.186 ± 0.064, M -0.56 ± 0.079, W -0.897 ± 0.09, Y -0.775 ± 0.13
L12: P -0.719 ± 0.085, Q -0.894 ± 0.11, C -0.667 ± 0.082, V -0.511 ± 0.059, W -0.177 ± 0.062, R -0.796 ± 0.058, N -0.875 ± 0.13
N3: C -0.247 ± 0.14, G -0.459 ± 0.066, D 0.015 ± 0.095, E -0.554 ± 0.093, W -0.491 ± 0.071, V -0.227 ± 0.066, P -0.159 ± 0.083, T -0.114 ± 0.063, R -0.338 ± 0.063
L9: E 0.03 ± 0.068, Q 0.145 ± 0.085, W -0.058 ± 0.068, D 0.156 ± 0.099, H -0.071 ± 0.11, I -0.014 ± 0.075, V -0.082 ± 0.058, F 0.065 ± 0.078, Y 0.022 ± 0.071, A -0.014 ± 0.078
V16: C -0.186 ± 0.081, R 0.002 ± 0.055, G -0.266 ± 0.055, Q 0.168 ± 0.098, K 0.18 ± 0.071, Y -0.028 ± 0.11, S -0.054 ± 0.06, P -1.04 ± 0.13, E -0.042 ± 0.083
D7: A 0.106 ± 0.058, I -0.19 ± 0.089, W -0.437 ± 0.066, K -0.04 ± 0.071, S 0.042 ± 0.057, H -0.257 ± 0.096, F -0.308 ± 0.096, Q 0.063 ± 0.07
A53: T -0.254 ± 0.19, R -0.498 ± 0.32, Y -0.629 ± 0.45, H -0.233 ± 0.25
S5: C -0.286 ± 0.23, T -0.014 ± 0.18
N32: R -0.095 ± 0.057, A -0.04 ± 0.063, H 0.076 ± 0.09, L -0.315 ± 0.058, E 0.061 ± 0.07, D -0.016 ± 0.072, P -0.93 ± 0.11, M -0.302 ± 0.088
K43: L -0.067 ± 0.063, N -0.025 ± 0.12, A -0.133 ± 0.057, M -0.146 ± 0.095, C -0.06 ± 0.1, G -0.302 ± 0.058, E -0.096 ± 0.075
V42: A -0.685 ± 0.24, F -0.145 ± 0.25
T23: A -0.267 ± 0.11, E -0.325 ± 0.13, K -0.587 ± 0.2, F 0.038 ± 0.13, G -0.262 ± 0.097, P -0.539 ± 0.16, Q -0.162 ± 0.14
W27: V -0.444 ± 0.061, H -0.537 ± 0.12, G -0.138 ± 0.054, I -0.286 ± 0.14, T -0.475 ± 0.088, A -0.114 ± 0.072, Q -0.726 ± 0.096
M34: Y -0.722 ± 0.094, E -0.816 ± 0.086, H -0.683 ± 0.12, F -0.317 ± 0.11, Q -0.696 ± 0.14
A21: K -0.018 ± 0.086, G -0.122 ± 0.057, L -0.079 ± 0.059, E 0.066 ± 0.073, T -0.016 ± 0.082, V -0.142 ± 0.065, I -0.185 ± 0.12, Y -0.265 ± 0.1, D -0.039 ± 0.091, M 0.005 ± 0.074
K2: F -0.314 ± 0.17, M -0.076 ± 0.095, R -0.184 ± 0.062, A -0.259 ± 0.084, N 0.076 ± 0.18, G -0.159 ± 0.064, Y -0.138 ± 0.18, T -0.017 ± 0.081
I30: M -0.535 ± 0.071, Y -0.923 ± 0.13, G -0.905 ± 0.056, W -0.839 ± 0.067, N -0.999 ± 0.24, F -0.635 ± 0.1, Q -1 ± 0.1, D -0.729 ± 0.12
G22: C 0.015 ± 0.087, Y -0.267 ± 0.085, H -0.166 ± 0.1, F -0.489 ± 0.083, K -0.146 ± 0.076, T -0.065 ± 0.075, R -0.098 ± 0.056, P -0.217 ± 0.074
W4: D -0.808 ± 0.097, T -0.621 ± 0.073, A -0.639 ± 0.074, Q -0.704 ± 0.095, K -0.758 ± 0.12, R -0.777 ± 0.057
V49: F -0.721 ± 0.18, L -0.258 ± 0.067, E -0.897 ± 0.11, K -1.02 ± 0.13, H -0.883 ± 0.14
L18: R -0.145 ± 0.061, I -0.073 ± 0.14, A 0.043 ± 0.096, M 0.065 ± 0.095, T -0.054 ± 0.1, V -0.108 ± 0.074, C -0.222 ± 0.088
A15: D -0.777 ± 0.12, Y -0.688 ± 0.14, H -0.754 ± 0.2, G -0.182 ± 0.058, P -0.724 ± 0.1, T -0.519 ± 0.093
S39: R 0 ± 0.056, E 0.076 ± 0.074, H 0.05 ± 0.094, W -0.183 ± 0.067, V -0.158 ± 0.06, K -0.086 ± 0.086, Q -0.102 ± 0.082
A46: S -0.099 ± 0.068, T -0.114 ± 0.086, Y -0.305 ± 0.082, L -0.355 ± 0.068, P -0.083 ± 0.1, M -0.22 ± 0.099, G -0.246 ± 0.06, I -0.167 ± 0.091, W -0.348 ± 0.089
I36: K 0.208 ± 0.086, W -0.134 ± 0.069, N 0.049 ± 0.09, H -0.135 ± 0.12, S 0.014 ± 0.058, F -0.116 ± 0.086, Y -0.141 ± 0.086
A31: Y -1.08 ± 0.15, H -0.919 ± 0.13, F -1.01 ± 0.13, I -0.82 ± 0.12, R -0.384 ± 0.056, L -0.463 ± 0.059, P -0.837 ± 0.1
D48: G -0.554 ± 0.067, L -0.838 ± 0.085, V -0.759 ± 0.074
Q10: M -0.34 ± 0.08, K -0.107 ± 0.075, I -0.212 ± 0.082, D -0.217 ± 0.075, C -0.577 ± 0.086, P -0.802 ± 0.078, N -0.083 ± 0.085, Y -0.207 ± 0.094
V29: Q 0.104 ± 0.078, E -0.103 ± 0.079, L -0.051 ± 0.059, S 0.01 ± 0.056, A 0.082 ± 0.064, T 0.008 ± 0.062, M 0.078 ± 0.071
R26: G -0.74 ± 0.21, T -0.52 ± 0.43
Y33: A -0.752 ± 0.082, E -0.805 ± 0.091, P -0.938 ± 0.11, Q -0.746 ± 0.11, W -0.073 ± 0.066, T -0.915 ± 0.097
S38: T -0.116 ± 0.066, Y -1.03 ± 0.18, V -0.755 ± 0.06, C -0.169 ± 0.066, K -0.517 ± 0.079, I -1.04 ± 0.16, A -0.224 ± 0.059, L -0.86 ± 0.063, H -0.525 ± 0.094, D -0.61 ± 0.084, W -1 ± 0.088, N -0.162 ± 0.095, R -0.435 ± 0.062
G51: Y -0.099 ± 0.12, E 0.016 ± 0.084, D 0.063 ± 0.062, I -0.176 ± 0.1, P -0.194 ± 0.088, T -0.065 ± 0.079
S25: N -0.384 ± 0.13, E -0.159 ± 0.082, Q -0.235 ± 0.11, C -0.04 ± 0.076, G -0.077 ± 0.059, K -0.003 ± 0.12
G41: I -0.119 ± 0.19, H -0.129 ± 0.099, T -0.072 ± 0.074, N -0.143 ± 0.1, C -0.103 ± 0.087, L -0.186 ± 0.06, R -0.061 ± 0.056, E -0.151 ± 0.086, P -0.114 ± 0.074, A 0.089 ± 0.067
N17: K -0.043 ± 0.095, V -0.161 ± 0.063, H -0.158 ± 0.12, Y -0.194 ± 0.11
I13: L 0.085 ± 0.058, F 0.039 ± 0.083, C -0.147 ± 0.082, Y -0.038 ± 0.076, R 0.086 ± 0.054, M 0.021 ± 0.069, D 0.142 ± 0.078, G 0.099 ± 0.054, E -0.006 ± 0.068, V -0.033 ± 0.057
L11: F -0.382 ± 0.092, D -0.802 ± 0.1, V -0.37 ± 0.056
F19: Y -0.178 ± 0.11, E -1.06 ± 0.13, A -0.536 ± 0.094, M -0.572 ± 0.11, D -0.948 ± 0.18, P -1.11 ± 0.18, S -0.622 ± 0.075, K -0.961 ± 0.14
E6: K -0.679 ± 0.44, F 0.038 ± 0.38, S 0.074 ± 0.12, T -0.175 ± 0.21, G -0.155 ± 0.17
N24: L -0.116 ± 0.064, H 0.118 ± 0.17, W -0.279 ± 0.072, D 0.008 ± 0.088, K -0.013 ± 0.079, Q -0.112 ± 0.11, C -0.166 ± 0.091
E28: Y -0.866 ± 0.24, G -0.397 ± 0.063, K -0.237 ± 0.11, R -0.138 ± 0.063, T -0.351 ± 0.095, Q 0.009 ± 0.092, F -0.376 ± 0.11
I50: E 0.095 ± 0.095, N -0.229 ± 0.096, L -0.06 ± 0.061, R 0.096 ± 0.06, G -0.113 ± 0.07

Reference: the Human Domainome abundance scans (Beltran et al. 2025)
